Experimental findings from the DeepSol protein solubility set are described below.

The series is described as follows: soluble on expression in E. coli; label from the status in PepcDB or PDB records.
For the sequence “MGSDKIHHHHHHMTFAQIQTFLAVARLGNFHAAARQLNVTQAAVSARVRQLEEELDLRLFERGRRGAELTEAGRFLLPGAEAIASTWTTISKDARHFYAGRVPLRLGGQLSIWDQQLVDLVIWVEETLGALPLALNFDHEMNVQDAIRNGVLDFALTHEQPAPDLTGVALPAERLVLVGSEPFDLGQSDLPLFMNFQLGGQYDAFVARHLSGHAGQHIMMGNCAMGLRYLRKRGGIAFFPVSMVVEDIQHGHLFPVQGVPEMELACNAVYHPSSVLGDLTAQIATAARSLRSREPVVALDTMS”, the “soluble on expression in E. coli” value is “not soluble”. On to “MTLSGGTIDILKTRSLAKLQGSKEVMKQKLEIPIHGSVTDNIFSEVRDSFRRNFTEGWEKAGAAFCVIHKGKVIVDLWGGYADKECFKEWKEDTISTIFSCTKSVTAICFAILVDRGLLKYSDKVTKYWPEFGQNGKQDITIEMVLSHTAGLPYFPGVKFTEEDLTDNNKLSHMIENLKPVFAPGTRTAYHALTFGWLTDQIFRRVDSQKRTVGQFFKDEIATKHYIDIHIGECSNEENRLARLFKCPATLVSREIAYDRSILKLARYYYNPRGLFAAARRNLSLHGSDFTMFNNSDLRVVGQPAVNGIGSARAMAQLHQLVLDGTLLSKETFDIIKHPRKMTSFDYLIGEPQNKEHGFTYFKSPLNTWQFGHPGVGGQMVRVDVENDLIVAYLTNGMKTAGCEDHVFTFNRLQRKVYECLKRIPKFELPPPEDIVENE”, for which the “soluble on expression in E. coli” value is “not soluble”. Take “MSLQSSEAIDTEPKTISPVPEGRPVLVLDLDETCIYSTPAKPEKQQNFPIRIKRRNVFIQVRPGMQECIRRLSEKYEIFFYTASTKIYANKVIDAIAPFVDNEHRFFVSRDQLKDLTLINRPLGKVLLLDNSACSAQKNNLLLIKTWIGDPNDNAFTNEVMPLLDNLVKESDIPSACRNLVSSRRYPSLYVIRSEGHHHHHH”: the “soluble on expression in E. coli” value is recorded as “soluble”. Regarding “MGDVVADALEKLSADQIEQFRKYFNMFDKEGKGYIRATQVGQILRTMGQAFEERDLKQLIKEFDADGSGEIEFEEFAAMVANFVVNNENDEGLEEELREAFRLYDKEGNGYINVSDLRDILRALDDNVSEEELDEMIAEIDADGSGTVDFDEFMEMMSGE”, the “soluble on expression in E. coli” value is given as “soluble”.

Turning to “MDVQQRLGGLLEITESRICLHCLGRHFVDLVEGPGNRLRGEKLQKKFSLKLSGPCMICGDVFDRIDEAAGMVKEKVDELGLEYSSVLVGTRLPPKMVELDDEIRKRLGIQTEGLKRDLNRELGKRVVKLLGCSAEFEDPDLVVMVDFRGDIRVWIQINPLFLEGRYRKLVRGIPQTRWPCRKCRGRGCERCNYTGKMYPTSVEELIAGPILEASQGRDARFHGSGREDVDVRMLGTGRPFVLEIREPRVRNLDPESLEEEVNRRAQGMVEVEGLRFSTRKRKVELKDSSQSRYKVYRALVELDGDVTDEDLERLGSLDIIKQRTPVRVSHRRADRVRERRVLEISWNLLDGCLELIIKGEGGLYIKELISGDSGRTEPSVSSVLGVPARCVALDVLEVGDEPSEKDLEHHHHHH”, the “soluble on expression in E. coli” value is “soluble”. On to “MGLYDKYARLAGERLQFSDNGLTPFGTCIDEVYSATEGRIGNKKVILAGTNNYLGLTFNHDAISEGQAALAAQGTGTTGSRMANGSYAPHLALEKEIAEFFNRPTAIVFQPVIPLI”, for which the “soluble on expression in E. coli” value is on record as “not soluble”. Regarding “MSVARHTQILPSVLDRLLDDEPDQSHIESISLFELPQFKRALARDLEALLNTRLMPLDELMESFPQARDSLLTFGIPDLSGISLLNPDDRELLREQLRRSIELHEPRLSRVRVNLDAPREMERHLRFRVDAVLKVHPHRPPVTFDATLQLSSNVYKVQG”, the “soluble on expression in E. coli” value is reported as “not soluble”.

Consider “KVVFAKEQPAHREVQAEAGASATLSCEVAQAQTEVTWYKDGKKLSSSSKVRVEAVGCTRRLVVQQAGQAEAGEYSCEAGGQQLSFRLQVAGQCFG”, for which the “soluble on expression in E. coli” value was “soluble”. As to “MSLRIIKAGLIGCGNISSIYFENVHRFKHLTIVACADLHLERARAQAEKYRIPKACTVAELLEDPEIELVINLTIPQVHAKVCIQALEAGKHVYTEKPLTITLEEGQKLLEKAKETGLLVGCAPDTFLGAGIQTSIQVIERGEIGTPVGASAFMIGRGHEHWHPDPAFYYDVGGGPMYDMGPYYLTALTALLGPMARVSGSARITYPERTILSEPKKGTKIKVSTPTHISGVIDFANGAIASITTSFDAFGGSVLPPIEVYGSEGTLLVPDPNTFDGPVQLRKRDEREFVEVPLTYHYTENNRGIGVADMAMSLLTGSDYRASGTMGFHVLEAMHGFHMSSTSGHHYQMKSTCRKPEPLPVDFRFSYVETEGHHHHHH”, the “soluble on expression in E. coli” value is “soluble”.

As to “MKKVRDPLEVTVVGQNIIVADDNYKWLQILPEKKRYSITVMFDNKGNPLEYYFDINIKNITQKGNARTVDLCLDVLALPSGEYELVDEDDLMFALESEQIT”, the “soluble on expression in E. coli” value is “not soluble”. The value for “APSYPEYTREEVGRHRSPEERVWVTHGTDVFDVTDFVELHPGGPDKILLAAGGALEPFWALYAVHGEPHVLELLQQYKVGELSPDEAPAAPDAQDPFAGDPPRHPGLRVNSQKPFNAEPPAELLAERFLTPNELFFTRNHLPVPAVEPSSYRLRVDGPGGGTLSLSLAELRSRFPKHEVTATLQCAGNRRSEMSRVRPVKGLPWDIGAISTARWGGARLRDVLLHAGFPEELQGEWHVCFEGLDADPGGAPYGASIPYGRALSPAADVLLAYEMNGTELPRDHGFPVRVVVPGVVGARSVKWLRRVAVSPDESPSHWQQNDFKGFSPCVDWDTVDYRTAPAIQELPVQSAVTQPRPGAAVPPGELTVKGYAWSGGGREVVRVDVSLDGGRTWKVARLMGDKAPPGRAWAWALWELTVPVEAGTELEIVCKAVDSSYNVQPDSVAPIWNLRGVLSTAWHRVRVSVQD” was “soluble”.

On to “MGHHHHHHSHMQYMYFKAEPYAADEGSGEGHKWLMVHVDKRITLAAFKQHLEPFVGVLSSHFKVFRVYASNQEFESVRLNETLSSFSDDNKITIRLGRALKKGEYRVKVYQLLVNEQEPCKFLLDAVFAKGMTVRQSKGELIPQLREQCGLELSIDRFRLRKKTWKNPGTVFLDYHIYEEDINISSNWEVFLEVLDGVEKMKSMSQLAVLSRRWKPSEMKLDPFQEVVLESSSVDELREKLSEISGIPLDDIEFAKGRGTFPCDISVLDIHQDLDWNPKVSTLNVWPLYICDDGGVIFYRDKTEELMELTDEQRNELMKKESSRLQKTGHRVTYSPRKEKALKIYLDGAPNKDLTQD”, for which the “soluble on expression in E. coli” value is reported as “not soluble”. Take “MGSDKIHHHHHHMKFPERFAHLPPYAFPRLRALLDHHAPGGDVVQLTIGEPKHEFPAWVTDVIVENASAFNNYPQNEGSDALRGAMADWAAQRYGVTLDPATRVMALNGTREGLYNAAMALCPEEKNGQRPVVLIPNPFYQVYMIAAISVAAEPVFVPATDETGHLPDYASLPEEVLNRTAIAYICSPANPQGAVASREYWQQLFALAEKYDFKVFADECYSEIYRDTAPVGALTVADEMGLDPERVVLFNSLSKRSNLPGLRCGLLAGGPETLVQVKKLRAYSGAPIPGPLQAAAAKVWADEVHVAENRALYQEKYRIADEVFAGLNGYMSPEAGFFLWLPVEDGEAATLKLWQETGVRVLPGAFLAQGKGAENPGHGYIRVALVASEEQTRASLQLLRDCLY”: the “soluble on expression in E. coli” value was “not soluble”. Take “MTPPRVLSIAGSDSGGGAGIQADMRTMALLGVHACVAVTAVTVQNTLGVKDIHEVPNDVVAGQIEAVVTDIGVQAAKTGMLASSRIVATVAATWRRLELSVPLVVDPVCASMHGDPLLAPSALDSLRGQLFPLATLLTPNLDEARLLVDIEVVDAESQRAAAKALHALGPQWVLVKGGHLRSSDGSCDLLYDGVSCYQFDAQRLPTGDDHGGGDTLATAIAAALAHGFTVPDAVDFGKRWVTECLRAAYPLGRGHGPVSPLFRLS”: the “soluble on expression in E. coli” value is listed as “not soluble”. For the sequence “SLAWHQRKHTQATPLRDIAADYTLQDFKLVALDTQTGKESLTLLGQQMQHNQTDSSAEVTAPLFMIPDQAGQHWTLQAQTGWINKDGTLLRLRHDVKGDSPTDLGQLPTTFRTQSLDIYPNHHLAKTTDAVTITHQGIIQTGVGFEVNTKTQQYKFNSKVNTRYEPSAAR”, the “soluble on expression in E. coli” value was “soluble”.

On to “MSNQRSSLKHLNTFALPAYASNVISAGSVETLIAAWHESKAKRQPVLLLGEGSNVLFIKNFSGTVLLNRIMGITSTEDSAAWYLHVGAGENWHQLVCHSLQNNMPGLENLALIPGCVGSAPIQNIGAYGVELKQVCEYVDLLDMDKGTIQRISAEECQFGYRDSIFKHRYGNGFAIVSVGIKLMKSWTPTLGYGDLIHMDPLTVTATDIFNSVCTMRRSKLPDPMVTGNAGSFFKNPVVSAAIAEEIVHCYPNAPHYLQPDGSVKLAAGWLIDQCSLKGYQIGGAAVHQQQALVLINQSEATGQDVIHLARYIRQQVAQRFSIWLEPEVRFIADNGEVNAVEHLS”, for which the “soluble on expression in E. coli” value is “not soluble”. Then “MKIAGIDEAGRGPVIGPMVIAAVVVDENSLPKLEELKVRDSKKLTPKRREKLFNEILGVLDDYVILELPPDVIGSREGTLNEFEVENFAKALNSLKVKPDVIYADAADVDEERFARELGERLNFEAEVVAKHKADDIFPVVSAASILAKVTRDRAVEKLKEEYGEIGSGYPSDPRTRAFLENYYREHGEFPPIVRKGWKTLKKIAEKVESEKTQDMINKST”, with “soluble”.

For the sequence “RAIFKISVAKEKEKMDSLEHNDDNQAIALSLVVKNPAVFSKTLAEVRQLLKGHDYVISRTMDSRTNSISLAHSDTVLNENDRVFVITNPQNTAVISSFIGTEVQMDRKQWIPTESHLVSRRFIVTKSELNGKTLGSLQLRKMHGMNVTRVNRAGVEMVALASLPLQVGDRLTVVGSELVMPKVEELIGNSVKRLNEPN”, the “soluble on expression in E. coli” value was “soluble”. For “MAGDPMREITDIAVAESGDSDFKERLETKNAKSWLKSVSAFANGIGGTLYFGVEDRTRRIIGVQDIQLTISKITELIVARITPRPVFECIPLQQKGKDILAVRVDSGKHTPFYYVHDHHHTAYIRMGDESVPATDYQLNELILKGRNETYDSQITEKLRTDYSFTLLEATYLHTLNQHMSDSDYVSFGLAVEDGRLTNAGLLFADQCPLPDSRVFCTRWNGLQRGSVHEDATDDAEYSGNLIYLLKSATEFIRRNTRKGWTKTANGRVEKPDYAERAYFEGVVNALIHRTYDFRGTEVHVEMYDDRLVISSPGGIYGGGELEPMSDGSYISKRRNPILADIFSRLRYMERRGSGIKKIFEATKNLYGYTEEKKPFFLVNKQNDFFLTIPNVNYRSESVTTHDTIHDTIHDTIHDTIHDKIALLLSFCQTPRSREEMMEFVGLRNRDHFQKKYLRPLLEQEKIEMTIPEKPQSKNQKYRTKEVVKLEHHHHHH”, the “soluble on expression in E. coli” value is reported as “soluble”. In the case of “MSQKTDAPLESYEVNGATIAVLPEEIDGKICSKIIEKDCVFYVNMKPLQIVDRSCRFFGSSYAGRKAGTYEVTKISHKPPIMVDPSNQIFLFPTLSSTRPQCGWISHVHVKEFKATEFDDTEVTFSNGKTMELPISYNSFENQVYRTAWLRTKFQDRIDHRVPKRQEFMLYPKEERTKMIYDFILRELGERYLEHHHHHH”, the “soluble on expression in E. coli” value was “not soluble”. Consider “MNCESLLTALDVSTLLSTLSSPEKEHRRKRRRGEVANPSNTLDALVARKADDQPFEKRYLSEQEAIEGPDDEIEMKKMELDPDVSTRTCSTCGYQGKWVSEMIRHKRVHTSERPFKCRYCSRTSKWKADLIRHVAKTHGIRVVSKYSRSKVFDATNSSMDSSCSSDSDRCIISEKRTVFYRCQLCSFEDERVSVLNSHVSHLHNTSPCVCRCGAKFEDVQGALAHSNGPCSHVDMIYNVMPTYEKASPLSPCRSESSSDSGIQTDPEEEASIITSSLPTPQLGSSPLLLSPTLPVTPSFLPDIQSALLSLQPNPLMSLYLASLLQSSLLNSPTIPTSFPQIIPTTILTPSQQDEMVDVEM”, for which the “soluble on expression in E. coli” value is “not soluble”.
